According to paper PMC3884069 (Cellular and molecular life sciences : CMLS, 2012):

Assays:
[1] = target: HLA-G6 (soluble HLA-G isoform, α1–α3 domains) (human) (UniProt P17693); assay: non-reducing SDS-PAGE and western blot
[2] = target: the molecule itself; assay: non-reducing SDS-PAGE and western blot

Molecule | stoichiometry N [1] | stoichiometry N [2]
HLA-G6 (soluble HLA-G isoform, α1–α3 domains) (from UniProt P17693-6 25-227) (natural protein) | 2 | 
HLA-G2 (membrane-bound HLA-G isoform, α1–α3 domains) (natural protein, human, UniProt P17693-2 25-246, looked up) MHC heavy: GSHSMRYFSAAVSRPGRGEPRFIAMGYVDDTQFVRFDSDSACPRMEPRAPWVEQEGPEYWEEETRNTKAHAQTDRMNLQTLRGYYNQSEANPPKTHVTHHPVFDYEATLRCWALGFYPAEIILTWQRDGEDQTQDVELVETRPAGDGTFQKWAAVVVPSGEEQRYTCHVQHEGLPEPLMLRWKQSSLPTIPIMGIVAGLVVLAAVVTGAAVAAVLWRKKSSD |  | 2
HLA-G4 (membrane-bound HLA-G isoform, α1–α2 domains) (natural protein, human, UniProt P17693-4 25-246, looked up) MHC heavy: GSHSMRYFSAAVSRPGRGEPRFIAMGYVDDTQFVRFDSDSACPRMEPRAPWVEQEGPEYWEEETRNTKAHAQTDRMNLQTLRGYYNQSEASSHTLQWMIGCDLGSDGRLLRGYEQYAYDGKDYLALNEDLRSWTAADTAAQISKRKCEAANVAEQRRAYLEGTCVEWLHRYLENGKEMLQRAKQSSLPTIPIMGIVAGLVVLAAVVTGAAVAAVLWRKKSSD |  | 2
